Changes are numbered by the printed parent chain. Names and notes keep the numbering of the source. Where two headings read alike, the source gives them in different places.

As a reminder, the Kd is the free concentration of one partner at which half of the binding sites on the other are occupied at equilibrium, for simple one-to-one binding. As usually defined, the koff is the first-order rate constant of dissociation. As usually defined, the kon is the rate constant with which the complex forms. The term IC50 denotes the point on the concentration scale where inhibition reaches its midpoint.

The target of assay [1] is T1, monomeric human CSF1R ectodomain protein (human, UniProt P07333 20-517).
T1 construct: also called biotinylated monomeric human CSF1R
Kind of assay: SPR Biacore, IgG captured, monomeric CSF1R analyte. The method, then:
(§1) Affinity (KD) of purified IgGs was determined via SPR with antigen in-solution on a Biacore 3000 (GE). A mouse anti-human antibody (CH1 specific) was immobilized on a CM5 Sensor Chip to a level of 2000 RU in acetate buffer at pH 4.5 using amine coupling following the Wizard instructions for two channels. One channel was used for background signal correction. The standard running buffer HBS-EP pH 7.4 was used. Regeneration was performed with a single injection of 10 μl of 10 mM Glycine at pH 1.5 at 20 μl/minute. IgG samples were injected for 2 minutes at 50 nM at 30 μl/min followed by and off-rate of 60 seconds. The monomeric ectodomain protein (human CSF1R or cynomolgus monkey CSF1R) was injected in two fold serial dilutions from 100 nM down to 3.1 nM, for 2 minutes at 30 μl/min followed by an off-rate of 300 seconds. The obtained sensorgrams were analysed using the Biacore 3000 evaluation (BIAevaluation) software. The KD was calculated by simultaneous fitting of the association and dissociation phases to a 1:1 Langmuir binding model.
(§2) Biacore analyses of binding affinity were performed for all IgGs to solution-phase, monomeric human and cyno CSF1R proteins (Table 6). […] Affinity differentials of less than 3-fold between human and cyno target orthologs are highly beneficial in pre-clinical drug development analyses as they allow more accurate design and interpretation of e.g. monkey safety, PK and PD modelling experiments.
In general terms: SPR reads the build-up and loss of mass on a sensor chip optically.

Assay [2] addresses T2, monomeric cynomolgus monkey CSF1R ectodomain protein (cynomolgus monkey, UniProt P07333 20-517 (human entry)).
T2 construct: also called monomeric cyno CSF1R; Cyno CSF1R
T2 chain: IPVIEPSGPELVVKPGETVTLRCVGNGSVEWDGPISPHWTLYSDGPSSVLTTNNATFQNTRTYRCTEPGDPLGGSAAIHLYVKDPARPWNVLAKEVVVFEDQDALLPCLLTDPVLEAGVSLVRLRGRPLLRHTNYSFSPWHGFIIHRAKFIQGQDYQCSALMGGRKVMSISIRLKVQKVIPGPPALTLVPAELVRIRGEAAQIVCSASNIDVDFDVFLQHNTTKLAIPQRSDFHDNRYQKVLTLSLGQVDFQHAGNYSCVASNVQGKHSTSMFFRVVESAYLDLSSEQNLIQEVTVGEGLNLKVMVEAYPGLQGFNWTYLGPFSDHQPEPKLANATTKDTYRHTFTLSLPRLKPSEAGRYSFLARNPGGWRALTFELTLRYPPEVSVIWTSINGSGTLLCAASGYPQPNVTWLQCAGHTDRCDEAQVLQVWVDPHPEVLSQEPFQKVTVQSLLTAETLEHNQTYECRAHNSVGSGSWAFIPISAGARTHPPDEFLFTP
Kind of assay: SPR Biacore, IgG captured, monomeric CSF1R analyte. How it is done: as §1, §2

The target of assay [3] is T1, monomeric human CSF1R ectodomain protein. As to the kind of experiment: AlphaScreen competition with mu0301 IgG4(S228P) for biotinylated monomeric human CSF1R. How it is done: The AlphaScreen assay (Perkin Elmer) was performed in a 25 μl final volume in 384-well white microtiter plates (Greiner). The reaction buffer contained 1×PBS pH 7.3 (Oxoid, Cat. nr. BR0014G) and 0.05% (v/v) Tween® 20 (Sigma, Cat. nr. P9416). Purified IgG samples were titrated in three fold serial dilutions starting at 500 nM final concentration and incubated with biotinylated human CSF1R for 20 minutes at room temperature. […] The emission of light was measured in the EnVision multilabel plate reader (Perkin Elmer) and analysed using the EnVision manager software. Values were reported as Counts Per Second (CPS) and corrected for crosstalk. The EC50 values were calculated using the […] in GraphPad Prism software (GraphPad Software, La Jolla, Calif.).
(In general: Alpha assays give light when donor and acceptor beads are brought close together.)

Assay [4] has the same target. As to the kind of experiment: SPR Biacore, IgG captured, monomeric CSF1R analyte. The method, then:
as §1
The source holds these as a separate data set.

Assay [5] addresses T2, monomeric cynomolgus monkey CSF1R …. As to the kind of experiment: SPR Biacore, IgG captured, monomeric CSF1R analyte. The method, then: as §1
The target in the next assay is T3, human insulin (human, UniProt P01308 25-54; P01308 90-110, limits assumed).
T3 construct: Coated antigen of the polyreactivity ('PK-risk indicator') ELISA
As to the kind of experiment: ELISA on human insulin (development risk, polyreactivity), binding score.

T3 sequence (P01308 25-54 limits assumed, chain 1 of 2): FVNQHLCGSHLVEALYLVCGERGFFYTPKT
T3 sequence (P01308 90-110 limits assumed, chain 2 of 2): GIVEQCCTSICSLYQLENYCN

B1: 29A03 (antibody, human IgG4, V domains shown)
VH: QVQLVQSGAEVKKPGSSVKVSCKASGYTFSSNYMIWVRQAPGQGLEWMGDINPYNGGATYNQKFQGRVTITADESTSTAYMELSSLRSEDTAVYYCAREPPYFSNLYVMDYWGQGTLVTVSS
VL: EIVLTQSPATLSLSPGERATLSCRASQSVEYEGENYLNWYQQKPGQAPRLLIYAASNRATGIPARFSGSGSGTDFTLTISSLEPEDFAVYYCQLSNQDLLTFGGGTKVEIK
notes: Library-derived clone, tested as human IgG4(S228P)/Ckappa IgG; framework residue limits counted on the grafts
In assay [1], B1 displayed a Kd of 0.39 nM, a koff of 0.0006 s⁻¹ and a kon of 1.6e+06 M⁻¹ s⁻¹. In assay [2], the Kd was determined as 1.2 nM, the koff worked out at 0.00032 s⁻¹ and the kon turned out to be 270000 M⁻¹ s⁻¹. Moreover, in assay [3], the IC50 was 4.6 nM.

B2: MH17 (antibody, human IgG4, V domains shown)
VH: B1 VH with N32A, T59N, N61A, P100G
VL: B1 VL with E30S, L82P, Q97E
notes: Deimmunized MH5 derivative, human IgG4(S228P)/Ckappa IgG
In assay [4], B2 came in with a Kd of 0.834 nM, a koff of 0.00112 s⁻¹ and a kon of 1.35e+06 M⁻¹ s⁻¹. In addition, in assay [5], the Kd amounted to 1.33 nM, the koff came out at 0.000906 s⁻¹ and the kon stood at 683000 M⁻¹ s⁻¹. Further, the binding result with human insulin is “no binding”.

B3: MH37 (antibody, human IgG4, V domains shown)
VH: B1 VH with N32S, T59N, N61A, P100G, Q114R
VL: B1 VL with E30S, L82P, Q97E
notes: as for B2
In the case of B3, the binding result with human insulin is “no binding”.

B4: MH10 (antibody, human IgG4, V domains shown)
VH: B1 VH with T59N, N61A, P100G
VL: B1 VL with E30S, L50S, L51A, L82P, Q97E
notes: as for B2
In assay [4], B4 had a Kd of 0.624 nM, a koff of 0.00088 s⁻¹ and an association rate constant (kon) of 1.41e+06 M⁻¹ s⁻¹. In assay [5], this molecule returned a Kd of 1.07 nM, a koff of 0.000754 s⁻¹ and a kon of 705000 M⁻¹ s⁻¹.

B5: MH11 (antibody, human IgG4, V domains shown)
VH: B1 VH with T59N, N61A, P100G
VL: B1 VL with E30S, L50A, L51A, L82P, Q97E
notes: as for B2
As to B5, in assay [4], the Kd came to 0.776 nM, the koff was 0.00119 s⁻¹ and the kon is 1.53e+06 M⁻¹ s⁻¹. In assay [5], this molecule yielded a Kd of 1.29 nM, a koff of 0.00103 s⁻¹ and a kon of 802000 M⁻¹ s⁻¹.

B6: MH25 (antibody, human IgG4, V domains shown)
VH: B1 VH with N32H, T59N, N61A, P100G
VL: B1 VL with E30S, L82P, Q97E
notes: as for B2
In assay [4], B6 had a Kd of 0.634 nM, a koff of 0.000921 s⁻¹ and a kon of 1.45e+06 M⁻¹ s⁻¹. In assay [5], this molecule gave a Kd of 1.03 nM, a koff of 0.000758 s⁻¹ and a kon of 733000 M⁻¹ s⁻¹. The binding result in the assay with human insulin is “no binding”.

B7: MH24 (antibody, human IgG4, V domains shown)
VH: B1 VH with N32H, T59N, N61A, P100G
VL: B1 VL with E30S, L50S, N57D, L82P, Q97E
notes: as for B2
As to B7, in assay [4], the Kd was found to be 0.397 nM, the “fold of the affinity of hu0301” value is no more than 2 fold, the koff was determined as 0.000976 s⁻¹ and the kon was 2.46e+06 M⁻¹ s⁻¹. Also, in assay [5], the Kd was found to be 0.777 nM, the “fold of the affinity of hu0301” value was no more than 2 fold, the koff is 0.000833 s⁻¹ and the kon was determined as 1.07e+06 M⁻¹ s⁻¹.

B8: MH16 (antibody, human IgG4, V domains shown)
VH: B1 VH with N32A, T59N, N61A, P100G
VL: B1 VL with E30S, L50S, N57D, L82P, Q97E
notes: Deimmunized MH5 derivative, human IgG4(S228P)/Ckappa IgG; also called mAb-5
For the molecule B8, in assay [4], the Kd stood at 0.444 nM, the “fold of the affinity of hu0301” value was no more than 2 fold, the koff worked out at 0.000897 s⁻¹ and the kon stood at 2.02e+06 M⁻¹ s⁻¹. For the same molecule, in assay [5], the Kd stood at 0.785 nM, the “fold of the affinity of hu0301” value was no more than 2 fold, the koff came out at 0.00075 s⁻¹ and the association rate constant (kon) came out at 956000 M⁻¹ s⁻¹. Besides, the binding result with human insulin was “no binding”.

B9: MH20 (antibody, human IgG4, V domains shown)
VH: B1 VH with N32S, T59N, N61A, P100G
VL: B1 VL with E30S, L50S, N57D, L82P, Q97E
notes: as for B2
For the molecule B9, in assay [4], the Kd was 0.709 nM, the koff amounted to 0.00177 s⁻¹ and the kon was determined as 2.49e+06 M⁻¹ s⁻¹. Besides, in assay [5], the Kd worked out at 1.24 nM, the koff stood at 0.00134 s⁻¹ and the kon worked out at 1.08e+06 M⁻¹ s⁻¹. In addition, in the assay with human insulin, the binding result is “no binding”.

B10: MH40 (antibody, human IgG4, V domains shown)
VH: B1 VH with N32H, T59N, N61A, P100G, Q114R
VL: B1 VL with E30S, L50S, N57D, L82P, Q97E
notes: as for B2
In assay [4], B10 registered a Kd of 0.553 nM, a koff of 0.00113 s⁻¹ and a kon of 2.05e+06 M⁻¹ s⁻¹. Moreover, in assay [5], the affinity, expressed as Kd, was 0.948 nM; the koff was determined as 0.00101 s⁻¹; the kon was 1.06e+06 M⁻¹ s⁻¹. Besides, the binding result in the assay with human insulin is recorded as “no binding”.

B11: MH12 (antibody, human IgG4, V domains shown)
VH: B1 VH with T59N, N61A, P100G
VL: B1 VL with E30S, L50S, N57D, L82P, Q97E
notes: Deimmunized MH5 derivative, human IgG4(S228P)/Ckappa IgG; also called mAb-4
Regarding B11, in assay [4], the affinity, expressed as Kd, was 0.342 nM; the “fold of the affinity of hu0301” value was no more than 2 fold; the koff was determined as 0.000832 s⁻¹; the kon came to 2.43e+06 M⁻¹ s⁻¹. In addition, in assay [5], binding was put at a Kd of 0.557 nM, the “fold of the affinity of hu0301” value is no more than 2 fold, the koff is 0.000726 s⁻¹ and the kon was 1.3e+06 M⁻¹ s⁻¹. In the assay with human insulin, the binding result was “no binding”.

B12: MH21 (antibody, human IgG4, V domains shown)
VH: B1 VH with N32S, T59N, N61A, P100G
VL: B1 VL with E30S, L82P, Q97E
notes: as for B2
Take B12: in assay [4], the affinity, expressed as Kd, was 1.23 nM; the koff turned out to be 0.00189 s⁻¹; the kon worked out at 1.54e+06 M⁻¹ s⁻¹. Further, in assay [5], binding was put at a Kd of 1.84 nM, the koff was 0.00137 s⁻¹ and the kon was 746000 M⁻¹ s⁻¹. For the same molecule, the binding result in the assay with human insulin is on record as “no binding”.

B13: MH29 (antibody, human IgG4, V domains shown)
VH: B1 VH with T59N, N61A, P100G, Q114R
VL: B1 VL with E30S, L82P, Q97E
notes: as for B2
With B13, in assay [4], the Kd stood at 0.562 nM, the koff is 0.000961 s⁻¹ and the kon was found to be 1.71e+06 M⁻¹ s⁻¹. In assay [5], this molecule gave a Kd of 0.913 nM, a koff of 0.000813 s⁻¹ and a kon of 891000 M⁻¹ s⁻¹. The binding result with human insulin was “no binding”.

B14: MH32 (antibody, human IgG4, V domains shown)
VH: B1 VH with N32A, T59N, N61A, P100G, Q114R
VL: B1 VL with E30S, L50S, N57D, L82P, Q97E
notes: Deimmunized MH5 derivative, human IgG4(S228P)/Ckappa IgG; also called MN32
With B14, in assay [4], the affinity, expressed as Kd, was 0.62 nM; the koff was determined as 0.00127 s⁻¹; the kon turned out to be 2.04e+06 M⁻¹ s⁻¹. Moreover, in assay [5], the affinity, expressed as Kd, was 0.979 nM; the koff turned out to be 0.00103 s⁻¹; the kon came out at 1.05e+06 M⁻¹ s⁻¹.

B15: MH41 (antibody, human IgG4, V domains shown)
VH: B1 VH with N32H, T59N, N61A, P100G, Q114R
VL: B1 VL with E30S, L82P, Q97E
notes: Deimmunized MH5 derivative, human IgG4(S228P)/Ckappa IgG; also called MN41
In assay [4], B15 had a Kd of 0.851 nM, a koff of 0.00109 s⁻¹ and a kon of 1.28e+06 M⁻¹ s⁻¹. Further, in assay [5], the Kd was 1.46 nM, the koff came to 0.000972 s⁻¹ and the kon was determined as 666000 M⁻¹ s⁻¹. For the same molecule, the binding result with human insulin was “no binding”.

The values are drawn from patent US20210301026A1 (ULTRAHUMAN TWELVE, published 2021).
